{"source": "patent US11046988B2", "about": "“Process for the modification of a glycoprotein using a β-(1,4)-N-acetylgalactosaminyl transferase or a mutant thereof” (Synaffix B.V., priority 2014, dated 2021)", "molecules": {"B1": {"name": "GalT(Y289L): β-(1,4)-galactosyltransferase mutant enzyme Bos taurus GalT-Y289L (SEQ ID NO: 1), prior-art comparator (protein)", "chain": "MKFREPLLGGSAAMPGASLQRACRLLVAVCALHLGVTLVYYLAGRDLRRLPQLVGVHPPLQGSSHGAAAIGQPSGELRLRGVAPPPPLQNSSKPRSRAPSNLDAYSHPGPGPGPGSNLTSAPVPSTTTRSLTACPEESPLLVGPMLIEFNIPVDLKLIEQQNPKVKLGGRYTPMDCISPHKVAIIILFRNRQEHLKYWLYYLHPMVQRQQLDYGIYVINQAGESMFNRAKLLNVGFKEALKDYDYNCFVFSDVDLIPMNDHNTYRCFSQPRHISVAMDKFGFSLPYVQLFGGVSALSKQQFLSINGFPNNYWGWGGEDDDIYNRLAFRGMSVSRPNAVIGKCRMIRHSRDKKNEPNPQRFDRIAHTKETMLSDGLNSLTYMVLEVQRYPLYTKITVDIGTPS", "modifications": "Bos Taurus GalT Y289L mutant"}}, "experiment": "Coupled glycosyltransferase assay (R&D Systems Glycosyltransferase Activity Kit, malachite green, 620 nm): transfer of F2-GalNAz to GlcNAc", "assay_type": "biochemical", "design": "Data from the determination of the specific activity: unit not given here", "conditions": "for Data from the determination of the specific activity: GlcNAc 20 mM, UDP-F2-GalNAz 500 μM, 20 min, room temperature, plate read at 620 nm; for specific activity: UDP-F2-GalNAz 500 μM to GlcNAc 20 mM, 5 mM MgCl2 and 5 mM MnCl2, pH 7.5, linear regression; for transferase activity compared with GalT(Y289L): transfer of F2-GalNAz from UDP-F2-GalNAz (18) to GlcNAc, FIG. 7 / FIG. 8", "excerpt": "In brief, the glycosyltransferase kit determines the activity of a particular glycosyltransferase by means of a coupled assay that detects the release of liberated UDP upon transfer of the donor sugar (from the sugar-UDP nucleotide) to an acceptor sugar. In more detail, the UDP that is liberated upon transfer of sugar is hydrolyzed by a particular enzyme (CD39L3/rectonucleoside triphosphate diphosphohydrolase-3, also known as NTPDase-3) thereby generating UMP and one equivalent of phosphate (Pi). The latter phosphate in turn is detected by malachite green, which is also added to the mixture. A green color develops in proportion to the amount of inorganic phosphate released and the absorbance of the color at 620 nm is measured as a direct measure of the activity of the glycosyltransferase. In the present case, transfer of F2-GalNAz from the UDP-substrate to GlcNAc on the protein is accompanied by release of UDP, which is hydrolyzed by CD39L3 and the generated phosphate. Preferably, the derived or wild type β-(1,4)-GalNAcT enzyme used in the process according to the invention has at least 30%, 33%, 50%, 75%, 100%, 150%, 200%, or more preferably at least 300% of the UDP-F2-GalNAz transfer activity as compared to the UDP-F2-GalNAz transfer activity of the β-(1,4)-galactosyltransferase mutant enzyme Bos taurus GalT-Y289L (SEQ ID NO: 1), wherein the transfer activity is assessed using the R&D Systems Glycosyltransferase Activity Kit and applying the conditions as indicated in detail in Example 18 and using equal amounts of the enzyme to be tested and β-(1,4)-galactosyltransferase mutant enzyme Bos taurus GalT-Y289L (SEQ ID NO: 1).\nSpecific activity of enzymes was determined by a coupled glycosyltransferase procedure as described by Wu et al. in Glycobiology 2010, 21, 723-733, incorporated by reference, and commercially available as a kit from R&D system.\nIn short, a glycosyltransferase reaction was carried out in 50 μL of reaction buffer (25 mM Tris, 150 mM NaCl, 5 mM MgCl2 and 5 mM MnCl2, pH 7.5) in a 96-well plate at room temperature for 20 min. To determine the kinetic parameters of a glycosyltransferase, multiple reactions with varying amounts of the enzyme were carried out simultaneously (0.01, 0.02, 0.04, 0.06, 0.08, 0.10 and 0.12 μg of enzyme) in the presence of fixed amounts of all other components (GlcNAc: 20 mM, UDP-F2-GalNAz: 500 μM), including the coupling phosphatase 1 (ENTPD3/CD39L3) (2.5 μL of 20 ng/μL solution). A well containing all components except for the enzyme served as a blank control. The reactions were initiated by adding the substrates and phosphatase to the enzyme and terminated by the addition of 30 μL of Malachite reagent A and 100 μL of water to each well. The color was developed by the addition of 30 μL of Malachite reagent B to each well followed by gentle mixing and incubation at room temperature for 20 min. Following color development, the plate was read at 620 nm with a multi-well plate reader. A phosphate standard curve was also performed to determine the conversion factor between the absorbance and the inorganic phosphate contents. Preparation of UDP-F2-GalNAz is described in Example 13.\nThe specific activity of the GalNAcTs described herein were compared to GalT(Y289L), an enzyme known to transfer UDP-GalNAz as previously disclosed in WO 2007/095506 and WO 2008/029281 (both Invitrogen Corporation).\nA graph depicting the conversion (in pmol/min/m) plotted against the amount of enzyme is shown in FIG. 7 (for Table 1) and FIG. 8 (for Table 2). From these plots specific activities were calculated by linear regression. […]"}
{"molecule": "CeGalNAcT(I257A): truncated C. elegans GalNAcT mutant, isoleucine 257 to alanine, SEQ ID NO: 12", "values": [{"measurement": "Data from the determination of the specific activity", "setting": "0.01 μg enzyme", "value": 0.009}, {"measurement": "Data from the determination of the specific activity", "setting": "0.02 μg enzyme", "value": 0.032}, {"measurement": "Data from the determination of the specific activity", "setting": "0.04 μg enzyme", "value": 0.049}, {"measurement": "Data from the determination of the specific activity", "setting": "0.06 μg enzyme", "value": 0.078}, {"measurement": "Data from the determination of the specific activity", "setting": "0.08 μg enzyme", "value": 0.097}, {"measurement": "Data from the determination of the specific activity", "setting": "0.1 μg enzyme", "value": 0.119}, {"measurement": "Data from the determination of the specific activity", "setting": "0.12 μg enzyme", "value": 0.152}, {"measurement": "specific activity", "value": 240, "unit": "pmol/min/µg"}, {"measurement": "transferase activity compared with GalT(Y289L)", "value": "significantly higher"}]}
{"molecule": "CeGalNAcT-His: CeGalNAcT(30-383) with C-terminal His6-tag, SEQ ID NO: 14", "values": [{"measurement": "Data from the determination of the specific activity", "setting": "0.01 μg enzyme", "value": 0.024}, {"measurement": "Data from the determination of the specific activity", "setting": "0.02 μg enzyme", "value": 0.044}, {"measurement": "Data from the determination of the specific activity", "setting": "0.04 μg enzyme", "value": 0.129}, {"measurement": "Data from the determination of the specific activity", "setting": "0.06 μg enzyme", "value": 0.161}, {"measurement": "Data from the determination of the specific activity", "setting": "0.08 μg enzyme", "value": 0.191}, {"measurement": "Data from the determination of the specific activity", "setting": "0.1 μg enzyme", "value": 0.226}, {"measurement": "Data from the determination of the specific activity", "setting": "0.12 μg enzyme", "value": 0.285}, {"measurement": "specific activity", "value": 332, "unit": "pmol/min/µg"}, {"measurement": "transferase activity compared with GalT(Y289L)", "value": "significantly higher"}]}
{"molecule": "CeGalNAcT(I257L): truncated C. elegans GalNAcT mutant, isoleucine 257 to leucine, SEQ ID NO: 10", "values": [{"measurement": "Data from the determination of the specific activity", "setting": "0.01 μg enzyme", "value": 0.02}, {"measurement": "Data from the determination of the specific activity", "setting": "0.02 μg enzyme", "value": 0.038}, {"measurement": "Data from the determination of the specific activity", "setting": "0.04 μg enzyme", "value": 0.081}, {"measurement": "Data from the determination of the specific activity", "setting": "0.06 μg enzyme", "value": 0.136}, {"measurement": "Data from the determination of the specific activity", "setting": "0.08 μg enzyme", "value": 0.153}, {"measurement": "Data from the determination of the specific activity", "setting": "0.1 μg enzyme", "value": 0.205}, {"measurement": "Data from the determination of the specific activity", "setting": "0.12 μg enzyme", "value": 0.245}, {"measurement": "specific activity", "value": 381, "unit": "pmol/min/µg"}, {"measurement": "transferase activity compared with GalT(Y289L)", "value": "significantly higher"}]}
{"molecule": "B1", "values": [{"measurement": "Data from the determination of the specific activity", "setting": "0.01 μg enzyme", "value": 0.005}, {"measurement": "Data from the determination of the specific activity", "setting": "0.02 μg enzyme", "value": 0.011}, {"measurement": "Data from the determination of the specific activity", "setting": "0.04 μg enzyme", "value": 0.013}, {"measurement": "Data from the determination of the specific activity", "setting": "0.06 μg enzyme", "value": 0.02}, {"measurement": "Data from the determination of the specific activity", "setting": "0.08 μg enzyme", "value": 0.027}, {"measurement": "Data from the determination of the specific activity", "setting": "0.1 μg enzyme", "value": 0.034}, {"measurement": "Data from the determination of the specific activity", "setting": "0.12 μg enzyme", "value": 0.039}, {"measurement": "specific activity", "value": 44, "unit": "pmol/min/µg"}]}
